According to patent CN118388640A (CHENZHOU NO 1 PEOPLES HOSPITAL, dated 2024):

Molecular target: T1, SARS-CoV-2 Wuhan-Hu-1 S蛋白 (Sino Biological，货号:40589-V08B1) (SARS-CoV-2 Wuhan-Hu-1, UniProt P0DTC2 14-1213)
T1 construct: extracellular domain
Assay: ELISA, S protein coated at 2 μg/mL, antibody at 1 μg/mL

B1: 抗新型冠状病毒SARS-CoV-2的广谱抗体(VSM12-37) (antibody, V domains shown)
VH: EVQLVESGGGLVQPGGSLRLSCAVSGFTVSSNYMSWVRQAPGKGLEWVSLIYSGGSTYYADSVKGRFTVSRDRSKNTLYLQMNSLRAEDTALYYCARDNPRVGSNYWGQGTLVTVSS
VL: DIQMTQSPSSLSASVGDRVTITCQASQDINNYLNWYQQKPGKAPKLLIYDASNLEAGVPSRFSGSGSGTDFTFTISSLQPEDIATYYCQQCDNVPLTFGGGTKVEIKR
notes: also called VSM12-37抗体
binding result: binds
